T1: CEACAM5 on transfected HeLa cells (UniProt P06731 35-685)
T1 construct: whole, on cells; also called C5
T1 sequence (looked up): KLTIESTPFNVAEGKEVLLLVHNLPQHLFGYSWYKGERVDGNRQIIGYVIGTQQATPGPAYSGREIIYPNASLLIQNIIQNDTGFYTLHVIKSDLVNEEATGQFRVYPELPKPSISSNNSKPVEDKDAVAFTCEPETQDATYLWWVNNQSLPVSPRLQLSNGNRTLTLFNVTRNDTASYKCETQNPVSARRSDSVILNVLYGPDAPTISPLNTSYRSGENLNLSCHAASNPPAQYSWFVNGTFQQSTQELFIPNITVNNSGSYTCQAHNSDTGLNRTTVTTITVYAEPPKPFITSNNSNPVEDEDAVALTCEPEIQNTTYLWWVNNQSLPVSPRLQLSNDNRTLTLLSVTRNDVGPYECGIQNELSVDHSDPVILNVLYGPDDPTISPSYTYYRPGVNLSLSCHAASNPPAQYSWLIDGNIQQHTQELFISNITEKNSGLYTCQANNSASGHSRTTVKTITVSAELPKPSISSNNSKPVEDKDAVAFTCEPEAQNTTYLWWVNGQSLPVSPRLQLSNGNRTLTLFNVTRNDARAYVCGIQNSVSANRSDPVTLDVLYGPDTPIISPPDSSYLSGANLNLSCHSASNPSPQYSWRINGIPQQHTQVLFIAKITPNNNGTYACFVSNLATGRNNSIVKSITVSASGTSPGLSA

T2: CEACAM1 on transfected HeLa cells (Homo sapiens (Human), UniProt P13688 35-526)
T2 construct: also called C1
T2 sequence: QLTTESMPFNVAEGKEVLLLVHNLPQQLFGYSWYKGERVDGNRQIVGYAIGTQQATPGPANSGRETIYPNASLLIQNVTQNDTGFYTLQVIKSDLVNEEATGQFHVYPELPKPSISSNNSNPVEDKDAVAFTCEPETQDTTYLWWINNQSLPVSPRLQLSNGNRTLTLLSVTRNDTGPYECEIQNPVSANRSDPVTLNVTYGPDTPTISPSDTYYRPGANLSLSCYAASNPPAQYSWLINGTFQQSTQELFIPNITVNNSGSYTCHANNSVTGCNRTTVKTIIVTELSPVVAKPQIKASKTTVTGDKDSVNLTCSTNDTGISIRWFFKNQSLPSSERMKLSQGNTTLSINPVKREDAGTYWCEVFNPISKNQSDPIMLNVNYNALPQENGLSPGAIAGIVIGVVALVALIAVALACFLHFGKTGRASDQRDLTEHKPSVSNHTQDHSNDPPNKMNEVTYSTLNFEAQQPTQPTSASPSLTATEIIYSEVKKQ

T3: CEACAM6 (Sino Biological) (human, UniProt P40199 35-320)
T3 construct: also called hCEACAM6
T3 sequence (looked up): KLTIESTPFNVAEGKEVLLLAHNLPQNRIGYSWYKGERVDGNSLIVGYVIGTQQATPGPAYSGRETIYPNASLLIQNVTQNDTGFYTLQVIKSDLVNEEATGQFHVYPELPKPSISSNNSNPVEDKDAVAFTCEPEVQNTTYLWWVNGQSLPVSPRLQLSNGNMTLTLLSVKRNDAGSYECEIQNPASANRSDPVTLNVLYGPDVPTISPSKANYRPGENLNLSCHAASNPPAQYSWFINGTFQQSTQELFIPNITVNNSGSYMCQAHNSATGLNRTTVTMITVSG

T4: CEACAM5 (Sino Biological) (human, UniProt P06731 35-685)
T4 construct: also called hCEACAM5
T4 sequence (looked up): T1 sequence (looked up)

B1: VH2 N56Q/Vκ4 S27(f)A IgG (antibody, V domains shown)
VH: EVQLLESGGGLVQPGGSLRLSCAASGFSFSDYYLYWVRQAPGKGLEWVATISVGGGQTSYADSVKGRFTISRDNSKNTLYLQMNSLRAEDTAMYYCTRGLYYGPAWFAYWGQGTLVTVSS
VL: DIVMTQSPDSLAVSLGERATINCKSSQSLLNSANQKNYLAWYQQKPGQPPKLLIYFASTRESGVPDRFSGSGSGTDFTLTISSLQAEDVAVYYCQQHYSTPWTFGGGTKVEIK
notes: IgG4 S241P, kappa; also called Parent; Parent IgG
B2: chimeric parental antibody VH0/Vκ0 (antibody, IgG4, V domains shown)
VH: EVQLVESGGGFVKPGGSLKLSCAASGFSFSDYYLYWVRQTPEKRLEWVATISVGGGNTSYPDSVKGRFTISRDNAKNNLYLQMSSLKSEDTAMYYCTRGLYYGPAWFAYWGQGTLVTVSA
VL: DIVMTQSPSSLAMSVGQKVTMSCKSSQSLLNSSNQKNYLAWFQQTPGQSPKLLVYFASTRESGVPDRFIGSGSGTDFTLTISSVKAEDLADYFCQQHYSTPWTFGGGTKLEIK
notes: IgG4 (S241P), kappa; also called Chimera; chimeric antibody

Legend:
[1] = target: T1, CEACAM5 on transfected HeLa cells; assay: flow cytometry, transfected HeLa
Protocol: (§1) Binding selectivity of the selected antibody variants was assessed by flow cytometry using HeLa cells transfected with vectors expressing CEACAM1, CEACAM5, and CEACAM6, respectively. The resulting cells were used for flow cytometry experiments and were cultured at 37° C., 5.0% CO₂ in Dulbecco's modified Eagle's medium supplemented with 10% fetal bovine serum, penicillin (100 U/ml) and dihydrostreptomycin ([…]). Cell lines were stained with the indicated antibodies followed by fluorochrome-conjugated monoclonal antibody specific for the indicated antibody isotypes such as human IgG4 or mouse IgG1 together with viable dye (DAPI). Data were acquired with a Cytoflex flow cytometer ([…]) and analyzed with FlowJo software (TreeStar, V7.6.5 for Windows).

[2] = target: T2, CEACAM1 on transfected HeLa cells; assay: flow cytometry, transfected HeLa
Protocol: as §1

[3] = target: T3, CEACAM6 (Sino Biological); assay: binding ELISA on plate-coated CEACAM (0.5 µg/mL); antibody at 1.67, 0.062 and 0.0069 µg/mL; signal as % of parent IgG on CEACAM1 at 1.67 µg/mL on the same plate
[4] = target: T4, CEACAM5 (Sino Biological); assay: as above

Row | Binder | relative fluorescence intensity [1] | relative fluorescence intensity [2] | binding result [3] | binding result [4]
1 | B1 | 0 | 89.3 | no binding (tested: 1.67 µg/mL) | no binding (tested: 1.67 µg/mL)
2 | B2 | 0.42 | 84.2 |  | 

— US20250388666A1 (BRIGHAM AND WOMEN S HOSPITAL, published 2025)
